How the values were obtained:
HeLa Kyoto [1] = assay: solubility in G1/S (NP-40 vs SDS abundance) (log2 ratio); higher = more soluble; settings: cell cycle stage: G1/S
HeLa Kyoto [2] = assay: melting temperature (median over replicates), in situ; higher = more thermally stable
HeLa Kyoto [3] = assay: solubility change mitosis vs G1/S (difference of NP-40 vs SDS log2 ratios) (log2 ratio difference); higher = more soluble in mitosis
HeLa Kyoto [4] = assay: thermal stability score vs G1/S (z-score of summed log2 fold changes over temperatures); higher = more thermally stable than in G1/S
[5] = cell cycle stage: early G1 (4.5 h after nocodazole release)
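Wherever melting temperature (median over replicates), in situ is given: HeLa Kyoto cells synchronized by double thymidine or nocodazole block, proteins quantified by TMT10plex mass spectrometry, three independent biological replicates.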
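Wherever solubility change mitosis vs G1/S (difference of NP-40 vs SDS log2 ratios) is given: synchronized HeLa Kyoto cells (double thymidine block for G1/S, nocodazole release for mitosis), protein amounts in NP-40 versus SDS lysates quantified by mass spectrometry, three biological replicates.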
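Wherever solubility in G1/S (NP-40 vs SDS abundance) is given: HeLa Kyoto cells arrested at G1/S by double thymidine block, proteins quantified by TMT10plex mass spectrometry in mild NP-40 versus SDS extracts, three biological replicates.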
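Wherever thermal stability score vs G1/S (z-score of summed log2 fold changes over temperatures) is given: synchronized HeLa Kyoto cells, proteins quantified by TMT10plex mass spectrometry, three biological replicates, mitosis taken 0.5 h after nocodazole release, G1/S directly after double thymidine block.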

Row | Sequence | solubility in G1/S (log2) (HeLa Kyoto [1]) | melting temperature (HeLa Kyoto [2]; cell cycle stage: G1/S) [°C] | melting temperature (HeLa Kyoto [2]; cell cycle stage: mitosis) [°C] | solubility change mitosis (log2) (HeLa Kyoto [3]) | thermal stability score (HeLa Kyoto [4]; [5]) | thermal stability score (HeLa Kyoto [4]; cell cycle stage: mitosis)
1 | MRLGPRTAALGLLLLCAAAAGAGKAEELHYPLGERRSDYDREALLGVQEDVDEYVKLGHEEQQKRLQAIIKKIDLDSDGFLTESELSSWIQMSFKHYAMQEAKQQFVEYDKNSDDTVTWDEYNIQMYDRVIDFDENTALDDAEEESFRKLHLKDKKRFEKANQDSGPGLSLEEFIAFEHPEEVDYMTEFVIQEALEEHDKNGDGFVSLEEFLGDYRWDPTANEDPEWILVEKDRFVNDYDKDNDGRLDPQELLPWVVPNNQGIAQEEALHLIDEMDLNGDKKLSEEEILENPDLFLTSEATDYGRQLHDDYFYHDEL [RCN2] | 0.0519 | 54.1 | 55.7 | 0.0798 | 4.55 | 0.298
2 | MRLLRRRHMPLRLAMVGCAFVLFLFLLHRDVSSREEATEKPWLKSLVSRKDHVLDLMLEAMNNLRDSMPKLQIRAPEAQQTLFSINQSCLPGFYTPAELKPFWERPPQDPNAPGADGKAFQKSKWTPLETQEKEEGYKKHCFNAFASDRISLQRSLGPDTRPPECVDQKFRRCPPLATTSVIIVFHNEAWSTLLRTVYSVLHTTPAILLKEIILVDDASTEEHLKEKLEQYVKQLQVVRVVRQEERKGLITARLLGASVAQAEVLTFLDAHCECFHGWLEPLLARIAEDKTVVVSPDIVTIDLNTFEFAKPVQRGRVHSRGNFDWSLTFGWETLPPHEKQRRKDETYPIKSPTFAGGLFSISKSYFEHIGTYDNQMEIWGGENVEMSFRVWQCGGQLEIIPCSVVGHVFRTKSPHTFPKGTSVIARNQVRLAEVWMDSYKKIFYRRNLQAAKMAQEKSFGDISERLQLREQLHCHNFSWYLHNVYPEMFVPDLTPTFYGAIKNLGTNQCLDVGENNRGGKPLIMYSCHGLGGNQYFEYTTQRDLRHNIAKQLCLHVSKGALGLGSCHFTGKNSQVPKDEEWELAQDQLIRNSGSGTCLTSQDKKPAMAPCNPSDPHQLWLFV [GALNT6] | 0.0486 | 53.6 | 53.2 | -0.117 | 4 | 5.54
3 | MRPEPGGCCCRRTVRANGCVANGEVRNGYVRSSAAAAAAAAAGQIHHVTQNGGLYKRPFNEAFEETPMLVAVLTYVGYGVLTLFGYLRDFLRYWRIEKCHHATEREEQKDFVSLYQDFENFYTRNLYMRIRDNWNRPICSVPGARVDIMERQSHDYNWSFKYTGNIIKGVINMGSYNYLGFARNTGSCQEAAAKVLEEYGAGVCSTRQEIGNLDKHEELEELVARFLGVEAAMAYGMGFATNSMNIPALVGKGCLILSDELNHASLVLGARLSGATIRIFKHNNMQSLEKLLKDAIVYGQPRTRRPWKKILILVEGIYSMEGSIVRLPEVIALKKKYKAYLYLDEAHSIGALGPTGRGVVEYFGLDPEDVDVMMGTFTKSFGASGGYIGGKKELIDYLRTHSHSAVYATSLSPPVVEQIITSMKCIMGQDGTSLGKECVQQLAENTRYFRRRLKEMGFIIYGNEDSPVVPLMLYMPAKIGAFGREMLKRNIGVVVVGFPATPIIESRARFCLSAAHTKEILDTALKEIDEVGDLLQLKYSRHRLVPLLDRPFDETTYEETED [SPTLC2] | 0.00928 | 53 | 52.7 | -0.16 | 0.665 | -0.386
4 | MRPFFLLCFALPGLLHAQQACSRGACYPPVGDLLVGRTRFLRASSTCGLTKPETYCTQYGEWQMKCCKCDSRQPHNYYSHRVENVASSSGPMRWWQSQNDVNPVSLQLDLDRRFQLQEVMMEFQGPMPAGMLIERSSDFGKTWRVYQYLAADCTSTFPRVRQGRPQSWQDVRCQSLPQRPNARLNGGKVQLNLMDLVSGIPATQSQKIQEVGEITNLRVNFTRLAPVPQRGYHPPSAYYAVSQLRLQGSCFCHGHADRCAPKPGASAGPSTAVQVHDVCVCQHNTAGPNCERCAPFYNNRPWRPAEGQDAHECQRCDCNGHSETCHFDPAVFAASQGAYGGVCDNCRDHTEGKNCERCQLHYFRNRRPGASIQETCISCECDPDGAVPGAPCDPVTGQCVCKEHVQGERCDLCKPGFTGLTYANPQGCHRCDCNILGSRRDMPCDEESGRCLCLPNVVGPKCDQCAPYHWKLASGQGCEPCACDPHNSLSPQCNQFTGQCPCREGFGGLMCSAAAIRQCPDRTYGDVATGCRACDCDFRGTEGPGCDKASGRCLCRPGLTGPRCDQCQRGYCNRYPVCVACHPCFQTYDADLREQALRFGRLRNATASLWSGPGLEDRGLASRILDAKSKIEQIRAVLSSPAVTEQEVAQVASAILSLRRTLQGLQLDLPLEEETLSLPRDLESLDRSFNGLLTMYQRKREQFEKISSADPSGAFRMLSTAYEQSAQAAQQVSDSSRLLDQLRDSRREAERLVRQAGGGGGTGSPKLVALRLEMSSLPDLTPTFNKLCGNSRQMACTPISCPGELCPQDNGTACGSRCRGVLPRAGGAFLMAGQVAEQLRGFNAQLQRTRQMIRAAEESASQIQSSAQRLETQVSASRSQMEEDVRRTRLLIQQVRDFLTDPDTDAATIQEVSEAVLALWLPTDSATVLQKMNEIQAIAARLPNVDLVLSQTKQDIARARRLQAEAEEARSRAHAVEGQVEDVVGNLRQGTVALQEAQDTMQGTSRSLRLIQDRVAEVQQVLRPAEKLVTSMTKQLGDFWTRMEELRHQARQQGAEAVQAQQLAEGASEQALSAQEGFERIKQKYAELKDRLGQSSMLGEQGARIQSVKTEAEELFGETMEMMDRMKDMELELLRGSQAIMLRSADLTGLEKRVEQIRDHINGRVLYYATCK [LAMB3] | 0.117 | 53.8 | 53.6 | -0.12 | -0.552 | 1.4
5 | MRPQELPRLAFPLLLLLLLLLPPPPCPAHSATRFDPTWESLDARQLPAWFDQAKFGIFIHWGVFSVPSFGSEWFWWYWQKEKIPKYVEFMKDNYPPSFKYEDFGPLFTAKFFNANQWADIFQASGAKYIVLTSKHHEGFTLWGSEYSWNWNAIDEGPKRDIVKELEVAIRNRTDLRFGLYYSLFEWFHPLFLEDESSSFHKRQFPVSKTLPELYELVNNYQPEVLWSDGDGGAPDQYWNSTGFLAWLYNESPVRGTVVTNDRWGAGSICKHGGFYTCSDRYNPGHLLPHKWENCMTIDKLSWGYRREAGISDYLTIEELVKQLVETVSCGGNLLMNIGPTLDGTISVVFEERLRQMGSWLKVNGEAIYETHTWRSQNDTVTPDVWYTSKPKEKLVYAIFLKWPTSGQLFLGHPKAILGATEVKLLGHGQPLNWISLEQNGIMVELPQLTIHQMPCKWGWALALTNVI [FUCA2] | -0.00865 | 54.8 | 54.8 | -0.00976 | 2.46 | 3.64
